# How the values were obtained:
# HLA-C*12:03 = experiment: IEDB peptide-MHC binding, purified MHC/direct/fluorescence; filed as Kd, often an IC50 or EC50 that approximates it; ≥ and ≤ were set here for values at or beyond the usual limits of such assays
# HLA-B*51:01 [1] = experiment: IEDB peptide-MHC binding, purified MHC/competitive/fluorescence; filed as Kd, often an IC50 or EC50 that approximates it; ≥ and ≤ were set here for values at or beyond the usual limits of such assays; conditions: source organism: Vibrio vulnificus CMCP6
# HLA-B*58:01 [2] = experiment: IEDB peptide-MHC binding, purified MHC/competitive/radioactivity; filed as Kd, often an IC50 or EC50 that approximates it; ≥ and ≤ were set here for values at or beyond the usual limits of such assays
# HLA-A*01:01 [3] = experiment: IEDB peptide-MHC binding, purified MHC/direct/fluorescence; filed as Kd, often an IC50 or EC50 that approximates it; ≥ and ≤ were set here for values at or beyond the usual limits of such assays
# HLA-A*02:01 [4] = experiment: as above
# HLA-A*03:01 = experiment: as above
# HLA-A*11:01 = experiment: as above; conditions: source organism: West Nile virus
# HLA-A*29:02 = experiment: as above; conditions: source organism: West Nile virus
# HLA-A*31:01 = experiment: as above
# HLA-A*69:01 = experiment: as above
# HLA-B*07:02 = experiment: as above
# HLA-B*15:01 [5] = experiment: as above
# HLA-B*15:09 = experiment: as above
# HLA-B*44:02 = experiment: as above
# HLA-B*46:01 = experiment: as above
# HLA-B*57:01 [6] = experiment: as above; conditions: source organism: West Nile virus
# HLA-B*58:01 [7] = experiment: as above
# HLA-B*08:01 = experiment: as above; conditions: source organism: Influenza A virus (A/camel/Mongolia/1982(H1N1))
# HLA-B*27:05 = experiment: as above; conditions: source organism: Influenza A virus (A/camel/Mongolia/1982(H1N1))
# HLA-B*40:01 = experiment: as above; conditions: source organism: Influenza A virus (A/camel/Mongolia/1982(H1N1))
# HLA-B*57:01 [8] = experiment: IEDB peptide-MHC binding, purified MHC/competitive/radioactivity; filed as Kd, often an IC50 or EC50 that approximates it; ≥ and ≤ were set here for values at or beyond the usual limits of such assays
# HLA-A*30:01 = experiment: as above; conditions: source organism: Dengue virus 1 Brazil/97-11/1997
# HLA-B*51:01 [9] = experiment: IEDB peptide-MHC binding, purified MHC/direct/fluorescence; filed as Kd, often an IC50 or EC50 that approximates it; ≥ and ≤ were set here for values at or beyond the usual limits of such assays; conditions: source organism: West Nile virus
# HLA-A*32:01 = experiment: IEDB peptide-MHC binding, purified MHC/competitive/radioactivity; filed as Kd, often an IC50 or EC50 that approximates it; ≥ and ≤ were set here for values at or beyond the usual limits of such assays; conditions: source organism: Dengue virus 2 Jamaica/1409/1983
# HLA-A*02:01 [10] = experiment: IEDB peptide-MHC binding, purified MHC/competitive/fluorescence; filed as Kd, often an IC50 or EC50 that approximates it; ≥ and ≤ were set here for values at or beyond the usual limits of such assays; conditions: source organism: Salmonella enterica subsp. enterica serovar Typhi
# HLA-B*15:01 [11] = experiment: as above; conditions: source organism: Salmonella enterica subsp. enterica serovar Typhi
# HLA-B*39:01 = experiment: as above; conditions: source organism: Salmonella enterica subsp. enterica serovar Typhi
# HLA-A*01:01 [12] = experiment: IEDB peptide-MHC binding, purified MHC/competitive/radioactivity; filed as Kd, often an IC50 or EC50 that approximates it; ≥ and ≤ were set here for values at or beyond the usual limits of such assays; conditions: source organism: Dengue virus 1 Brazil/97-11/1997
# HLA-A*26:01 = experiment: as above; conditions: source organism: Dengue virus 1 Brazil/97-11/1997
# HLA-A*68:02 = experiment: as above; conditions: source organism: Dengue virus 1 Brazil/97-11/1997
# [13] = source organism: West Nile virus
# [14] = source organism: Influenza A virus (A/camel/Mongolia/1982(H1N1))
# [15] = source organism: Dengue virus 3 Martinique/1243/1999
# [16] = source organism: Dengue virus 2 Jamaica/1409/1983
# [17] = source organism: Dengue virus 1 Brazil/97-11/1997
# [18] = source organism: Dengue virus 1 Singapore/S275/1990
sequence,measurement,setting,value
FAFHTVFHI,Kd,HLA-C*12:03; source organism: Vibrio vulnificus CMCP6,≤ 1 nM
same,Kd,HLA-B*51:01 [1],42.9 nM
FSLENVRLM,Kd,HLA-C*12:03; source organism: Leishmania panamensis,772 nM
GAVFQEEQGW,Kd,HLA-B*58:01 [2]; source organism: Dengue virus 4 Philippines/H241/1956,18.5 nM
GRGPIRFVL,Kd,HLA-A*01:01 [3]; [13],≥ 20000 nM
same,Kd,HLA-A*02:01 [4]; [13],≥ 20000 nM
same,Kd,HLA-A*03:01; [13],≥ 20000 nM
same,Kd,HLA-A*11:01,≥ 20000 nM
same,Kd,HLA-A*29:02,≥ 20000 nM
same,Kd,HLA-A*31:01; [13],≥ 20000 nM
same,Kd,HLA-A*69:01; [13],≥ 20000 nM
same,Kd,HLA-B*07:02; [13],≥ 20000 nM
same,Kd,HLA-B*15:01 [5]; [13],≥ 20000 nM
same,Kd,HLA-B*15:09; [13],≥ 20000 nM
same,Kd,HLA-B*44:02; [13],≥ 20000 nM
same,Kd,HLA-B*46:01; [13],≥ 20000 nM
same,Kd,HLA-B*57:01 [6],≥ 20000 nM
same,Kd,HLA-B*58:01 [7]; [13],≥ 20000 nM
HIPEVCLKW,Kd,HLA-A*01:01 [3]; [14],≥ 20000 nM
same,Kd,HLA-A*02:01 [4]; [14],≥ 20000 nM
same,Kd,HLA-A*03:01; [14],≥ 20000 nM
same,Kd,HLA-A*31:01; [14],≥ 20000 nM
same,Kd,HLA-A*69:01; [14],≥ 20000 nM
same,Kd,HLA-B*07:02; [14],≥ 20000 nM
same,Kd,HLA-B*08:01,≥ 20000 nM
same,Kd,HLA-B*15:01 [5]; [14],≥ 20000 nM
same,Kd,HLA-B*15:09; source organism: Influenza A virus H3N2,≥ 20000 nM
same,Kd,HLA-B*27:05,≥ 20000 nM
same,Kd,HLA-B*40:01,≥ 20000 nM
same,Kd,HLA-B*44:02; [14],≥ 20000 nM
same,Kd,HLA-B*46:01; [14],≥ 20000 nM
same,Kd,HLA-B*58:01 [7]; [14],122 nM
IASAIVLEFF,Kd,HLA-B*57:01 [8]; [15],883 nM
same,Kd,HLA-B*58:01 [2]; [15],21 nM
KSIEDNPEI,Kd,HLA-B*58:01 [2]; [16],5.48 nM
KVRKDIPQW,Kd,HLA-A*30:01,254 nM
same,Kd,HLA-B*57:01 [8]; [17],35.5 nM
same,Kd,HLA-B*58:01 [2]; [17],5.97 nM
NASDRMGMGT,Kd,HLA-B*57:01 [8]; [18],652 nM
same,Kd,HLA-B*58:01 [2]; [18],5120 nM
PTAGVLARW,Kd,HLA-B*57:01 [8]; [15],29.7 nM
RAVHADMGYW,Kd,HLA-B*58:01 [2]; [16],0.235 nM
RVYSDHQAL,Kd,HLA-B*51:01 [9],≥ 20000 nM
same,Kd,HLA-C*12:03; [13],650 nM
STSLSMTCIA,Kd,HLA-B*57:01 [8]; [17],2080 nM
TASILLWYAQ,Kd,HLA-A*32:01,≥ 33100 nM
same,Kd,HLA-B*57:01 [8]; [16],29 nM
same,Kd,HLA-B*58:01 [2]; [16],1010 nM
TQFAGVVTV,Kd,HLA-C*12:03; source organism: Salmonella enterica subsp. enterica serovar Typhi str. CT18,3 nM
same,Kd,HLA-A*02:01 [10],0.5 nM
same,Kd,HLA-B*15:01 [11],212 nM
same,Kd,HLA-B*39:01,1.7 nM
TTSGTYVSAI,Kd,HLA-A*01:01 [12],≥ 70400 nM
same,Kd,HLA-A*26:01,17000 nM
same,Kd,HLA-A*68:02,20.5 nM
same,Kd,HLA-B*57:01 [8]; [17],179 nM
VASEGIKYTD,Kd,HLA-B*57:01 [8]; [15],5160 nM
same,Kd,HLA-B*58:01 [2]; [15],340 nM
YLQQNTHTL,Kd,HLA-C*12:03; source organism: Homo sapiens,90 nM

# — the Immune Epitope Database (IEDB)
